Data on two molecules can be found in PMC6742479 (Molecular cell, 2015).

The target in the experiment is T1, GST-scKap104 (S. cerevisiae, UniProt P38217 1-918).
T1 sequence (looked up): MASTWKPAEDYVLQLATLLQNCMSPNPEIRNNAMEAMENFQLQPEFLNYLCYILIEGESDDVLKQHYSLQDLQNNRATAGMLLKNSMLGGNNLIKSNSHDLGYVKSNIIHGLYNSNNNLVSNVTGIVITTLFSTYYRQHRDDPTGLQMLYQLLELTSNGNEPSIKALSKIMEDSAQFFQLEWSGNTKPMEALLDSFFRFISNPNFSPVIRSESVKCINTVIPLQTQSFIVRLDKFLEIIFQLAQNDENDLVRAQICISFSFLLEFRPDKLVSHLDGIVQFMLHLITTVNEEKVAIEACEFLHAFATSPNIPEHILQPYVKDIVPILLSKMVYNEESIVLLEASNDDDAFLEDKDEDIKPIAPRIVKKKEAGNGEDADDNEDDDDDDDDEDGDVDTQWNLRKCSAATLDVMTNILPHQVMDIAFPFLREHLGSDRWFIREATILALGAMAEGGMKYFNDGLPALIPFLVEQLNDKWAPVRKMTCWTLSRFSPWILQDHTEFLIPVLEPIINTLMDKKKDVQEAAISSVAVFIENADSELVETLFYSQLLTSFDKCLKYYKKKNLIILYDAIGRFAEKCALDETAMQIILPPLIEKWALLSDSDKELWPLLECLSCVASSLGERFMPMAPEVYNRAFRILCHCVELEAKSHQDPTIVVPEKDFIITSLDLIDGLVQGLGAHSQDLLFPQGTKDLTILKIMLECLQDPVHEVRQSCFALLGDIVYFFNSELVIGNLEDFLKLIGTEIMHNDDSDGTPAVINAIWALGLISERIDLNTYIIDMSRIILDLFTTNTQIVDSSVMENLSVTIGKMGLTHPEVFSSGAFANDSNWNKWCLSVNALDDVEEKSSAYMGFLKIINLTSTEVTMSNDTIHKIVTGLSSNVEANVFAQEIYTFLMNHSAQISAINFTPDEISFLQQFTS
As to the kind of experiment: pull-down.

B1: scRpL4 (natural protein)
chain: not shown
On to B1, for which the binding result is reported as “binds”.

B2: His6-scAcl4•scRpL4 (complex)
chain 1: MSELEATIRQAKEALAENNAKKALKILKPFKSSLKKENANNVILNEVFADAYLDNGQVEKAYPILARACELDPEGQVGGPDKFFTMGQIMGGQDGVSIITRGIMNISNTGGEMLTNVQVEKIVGGLLSVIEIWMTDLCMEPNAEEQCEELIQKAMELTEGKSPETWSTLGSIKISQQKFGEAYEAFSQAWNFFELKKQEIGSGINENGDTTQKAGLQSEYVDLLQPLLSLTKMCLEVGAYEVALKVIAAVRDIDEDNIEGYYLEGFTYYLMSKLEIFKLNNPEVSLRPENIYEFNQLIQEVPLDLSHEPISQLIYDSRLALSFALQAGVNADSKDEIVQELLGGANALLQEIGGPLDPSELTQIKKGDLVNENEDLEELDIEEEYSD
chain 2: not shown
Take B2: the binding result was “binds”.
